Measured values taken from US5360895A, “Derivatized gold clusters and antibody-gold cluster conjugates” (priority 1992, dated 1994).

Tests used:
[1] = Thermal stability of gold clusters; type: physicochemical
human colon carcinoma = test: In vivo biodistribution of radiogold cluster 17-1A conjugates in nude mice bearing human tumors; details: 24 hr after injection
Procedure: Nude mice bearing human colon carcinoma or melanoma tumors were injected with radioactive gold clusters conjugated to anti-tumor antibodies. Two antibodies were gold labeled, one (17-1A) against the human colon carcinoma and another non-relevant antibody, H2 4B5 anti-influenza. The non-relevant tumor (melanoma) and non-relevant gold conjugated antibody (H2 4B5) served as controls. A total of 53 mice were used. In order to assess the efficacy of using gold labeled Fab' versus whole IgG, both types of antibody were labeled and tested. In addition, two crosslinking arms between the gold cluster and antibody were used, one, as described in the preparation example, was N-methoxycarbonyl maleimide (NMCM), whereas the other was n-maleimidobenzoyl-N-hydroxysuccinimide ester (MBS), This was to test if a different covalent crosslinker between the gold cluster and antibody or antibody fragment yielded conjugates with different stabilities or body distributions in vivo.
In vivo biodistribution of radiogold cluster 17-1A conjugates. Data,
after injection is expressed in % of injected dose per gram of tissue.
Tumor to normal tissue ratios are given in parentheses. Three or four
sample were averaged; normalized to 25 g animals.

melanoma cells (WM164) = test: In vitro cell binding of 17-1A-Au11 conjugates, control melanoma (radioactivity of gold); details: percent of applied radioactive gold bound after incubation and washing; average ± s.d. of 2 samples
Procedure: (§1) The 17-1A Fab' fragment-(radioactive gold)-undecagold cluster conjugate was incubated in vitro with tumor cells (LS180- a cell culture of human colon carcinoma) and non tumor cells (WM164 - a cell culture of melanoma as control) and the radioactivity of the gold was used to assay binding.
(§2) bound to cells after incubation and washing.
(§3) entry is an average (+ s.d.) of 2 samples.

[2] = system: human colon carcinoma cells (LS180); test: In vitro cell binding of 17-1A-Au11 conjugates, human colon carcinoma (radioactivity of gold); details: percent of applied radioactive gold bound after incubation and washing; average ± s.d. of 2 samples
Procedure: as §1, §2, §3

Au55 [P(PhCONHCH3)3 ]11 P(PhCONHCH3)2 [derivatized Au55 cluster, Au55 [P(PhCONHCH3)3 ]11 P(PhCONHCH3)2 [PhCONH(CH2)3 N(CO)2 (CH)2 ]]
temperature above which the cluster deteriorates rapidly [1]: above 70 °C

B1: IgG-Au11: 17-1A whole IgG labeled with monomaleimidopropyl undecagold cluster, about 2 Au clusters per IgG (conjugate, chains of the INN, looked up)
VH: QVQLQQSGAELVRPGTSVKVSCKASGYAFTNYLIEWVKQRPGQGLEWIGVINPGSGGTNYNEKFKGKATLTADKSSSTAYMQLSSLTSDDSAVYFCARDGPWFAYWGQGTLVTVSA
VL: NIVMTQSPKSMSMSVGERVTLTCKASENVVTYVSWYQQKPEQSPKLLIYGASNRYTGVPDRFTGSGSATDFTLTISSVQAEDLADYHCGQGYSYPYTFGGGTKLEIK
modifications: undecagold cluster label
notes: 17-1A whole IgG labeled with monomaleimidopropyl undecagold cluster, about 2 Au clusters per IgG
Tumor to normal tissue ratio, blood (human colon carcinoma): 2.5 | Tumor to normal tissue ratio, bone (human colon carcinoma): 3.6 | Tumor to normal tissue ratio, gut (human colon carcinoma): 7.2 | Tumor to normal tissue ratio, heart (human colon carcinoma): 3.1 | Tumor to normal tissue ratio, kidneys (human colon carcinoma): 0.5 | Tumor to normal tissue ratio, liver (human colon carcinoma): 1.7 | Tumor to normal tissue ratio, lung (human colon carcinoma): 2.3 | Tumor to normal tissue ratio, muscle (human colon carcinoma): 10.0 | Tumor to normal tissue ratio, spleen (human colon carcinoma): 0.8 | Tumor to normal tissue ratio, stomach (human colon carcinoma): 11.6 | blood, % of injected dose per gram of tissue (human colon carcinoma; normalized to 25 g animals): 3.2 ± 0.6 % of injected dose per gram of tissue | bone, % of injected dose per gram of tissue (human colon carcinoma; normalized to 25 g animals): 2.2 ± 0.3 % of injected dose per gram of tissue | gut, % of injected dose per gram of tissue (human colon carcinoma; normalized to 25 g animals): 1.1 ± 0.3 % of injected dose per gram of tissue | heart, % of injected dose per gram of tissue (human colon carcinoma; normalized to 25 g animals): 2.6 ± 0.4 % of injected dose per gram of tissue | kidneys, % of injected dose per gram of tissue (human colon carcinoma; normalized to 25 g animals): 17.1 ± 3.1 % of injected dose per gram of tissue | liver, % of injected dose per gram of tissue (human colon carcinoma; normalized to 25 g animals): 4.6 ± 0.7 % of injected dose per gram of tissue | lung, % of injected dose per gram of tissue (human colon carcinoma; normalized to 25 g animals): 3.4 ± 0.9 % of injected dose per gram of tissue | muscle, % of injected dose per gram of tissue (human colon carcinoma; normalized to 25 g animals): 0.80 ± 0.23 % of injected dose per gram of tissue | spleen, % of injected dose per gram of tissue (human colon carcinoma; normalized to 25 g animals): 9.5 ± 0.3 % of injected dose per gram of tissue | stomach, % of injected dose per gram of tissue (human colon carcinoma; normalized to 25 g animals): 0.69 ± 0.20 % of injected dose per gram of tissue | tumor, % of injected dose per gram of tissue (human colon carcinoma; normalized to 25 g animals): 8.0 ± 3.2 % of injected dose per gram of tissue | % bound to control cells (melanoma) (melanoma cells (WM164)): 0.77 ± 0.08% | % bound to tumor cells (human colon carcinoma) [2]: 14.32 ± 0.92%
